Test results: the Human Domainome abundance scans (Beltran et al. 2025)
± gives the uncertainty stated by the source.

B1: Tesmin, residues 368 to 403; numbered along this chain, Q9Y4I5 (parent)
chain: KGCNCRRSGCLKNYCECYEAQIMCSSICKCIGCKNY
B2: POU domain, class 3, transcription factor 4, residues 280 to 335; numbered along this chain, P49335 (parent)
chain: KKRTSIEVSVKGVLETHFLKCPKPAAQEISSLADSLQLEKEVVRVWFCNRRQKEKR

Variants of: B1
Test: abundance fitness (aPCA) (normalised: wild type 0, dead -1); higher = more abundant; growth selection in yeast, the domain comes from the species named
Details: Homo sapiens

Variant	abundance fitness
KGCNCRRSGCLKNYCECYEAQIMCSSICKCIWCKNY [G32W]	-0.349 ± 0.12
KGCNCRRSGCLKNYCECYEAQIMCSSICKCIPCKNY [G32P]	-0.082 ± 0.12
KGCNCRRSGCLKNYCECYEAQIMCSSICKCIQCKNY [G32Q]	-0.414 ± 0.4
KGCNCRRSGCLKNYCECYEAQIMCSSICKCIRCKNY [G32R]	-0.249 ± 0.082
KGCNCRRSGCLKNYCECYEAQIMCSSICKCITCKNY [G32T]	-0.655 ± 0.18
KGCNCRRSGCLKNYCECYEAQIMCSSICKCIVCKNY [G32V]	-0.443 ± 0.094
KGCNCRRSGCLKNYCECYEAQIMCSSICKCISCKNY [G32S]	-0.087 ± 0.14
KGCNCRRSGCLKNYCECYEAQIMCSSICKCILCKNY [G32L]	-0.96 ± 0.13
KGCNCRRSGCLKNYCECYEAQIMCSSICKCIGTKNY [C33T]	-0.14 ± 0.1
KGCNCRRSGCLKNYCECYEAQIMCSSICKCIGLKNY [C33L]	-0.232 ± 0.083
KGCNCRRSGCLKNYCECYEAQIMCSSICKCIGMKNY [C33M]	-0.147 ± 0.16
KGCNCRRSGCLKNYCECYEAQIMCSSICKCIGRKNY [C33R]	-0.245 ± 0.069
KGCNCRRSGCLKNYCECYEAQIMCSSICKCIGWKNY [C33W]	-0.449 ± 0.086
KGCNCRRSGCLKNYCECYEAQIMCSSICKCIGGKNY [C33G]	-0.025 ± 0.064
KGCNCRRSGCLKNYCECYEAQIMCSSICKCIGSKNY [C33S]	-0.121 ± 0.081
KGCNCRRSGCLKNYCECYEAQIMCSSICKCIGKKNY [C33K]	-0.123 ± 0.093
KGCNCRRSGCLKNYCECYEAQIMCSSICKCIGQKNY [C33Q]	-0.362 ± 0.2
KGCNCRRSGCLKNYCECYEAQIMCSSICKCIGAKNY [C33A]	-0.011 ± 0.076
KGCNCRRSGCLKNYCECYEAQIMCSSICKCIGHKNY [C33H]	-0.106 ± 0.17
KGCNCRRSGCLKNYCECYEAQIMCSSICKCIGVKNY [C33V]	-0.055 ± 0.08
KGCNCRRSGCLKNYCECYEAQIMCSSICKCIGPKNY [C33P]	-0.014 ± 0.084
KGCNCRRSGCLKNYCECYEAQIMCSSICKCIGEKNY [C33E]	0.109 ± 0.076

Variant	abundance fitness
KGCNCRRSGCLKNYCECYEAQIMCSSICKCIGDKNY [C33D]	-0.064 ± 0.094
KGCNCRRSGCLKNYCECYEAQIMCSSICKCIGCTNY [K34T]	0.057 ± 0.1
KGCNCRRSGCLKNYCECYEAQIMCSSICKCIGCINY [K34I]	-0.503 ± 0.41
KGCNCRRSGCLKNYCECYEAQIMCSSICKCIGCVNY [K34V]	0.152 ± 0.078
KGCNCRRSGCLKNYCECYEAQIMCSSICKCIGCLNY [K34L]	0.121 ± 0.083
KGCNCRRSGCLKNYCECYEAQIMCSSICKCIGCCNY [K34C]	0.064 ± 0.14
KGCNCRRSGCLKNYCECYEAQIMCSSICKCIGCANY [K34A]	0.185 ± 0.085
KGCNCRRSGCLKNYCECYEAQIMCSSICKCIGCWNY [K34W]	0.003 ± 0.089
KGCNCRRSGCLKNYCECYEAQIMCSSICKCIGCNNY [K34N]	0.06 ± 0.13
KGCNCRRSGCLKNYCECYEAQIMCSSICKCIGCDNY [K34D]	0.295 ± 0.15
KGCNCRRSGCLKNYCECYEAQIMCSSICKCIGCPNY [K34P]	0.161 ± 0.21
KGCNCRRSGCLKNYCECYEAQIMCSSICKCIGCSNY [K34S]	0.073 ± 0.12
KGCNCRRSGCLKNYCECYEAQIMCSSICKCIGCGNY [K34G]	0.266 ± 0.068
KGCNCRRSGCLKNYCECYEAQIMCSSICKCIGCENY [K34E]	0.182 ± 0.14
KGCNCRRSGCLKNYCECYEAQIMCSSICKCIGCQNY [K34Q]	-0.107 ± 0.14
KGCNCRRSGCLKNYCECYEAQIMCSSICKCIGCKAY [N35A]	0.141 ± 0.079
KGCNCRRSGCLKNYCECYEAQIMCSSICKCIGCKYY [N35Y]	-0.64 ± 0.36
KGCNCRRSGCLKNYCECYEAQIMCSSICKCIGCKVY [N35V]	-0.362 ± 0.09
KGCNCRRSGCLKNYCECYEAQIMCSSICKCIGCKLY [N35L]	-0.861 ± 0.22
KGCNCRRSGCLKNYCECYEAQIMCSSICKCIGCKSY [N35S]	-0.023 ± 0.093
KGCNCRRSGCLKNYCECYEAQIMCSSICKCIGCKFY [N35F]	-0.614 ± 0.34
KGCNCRRSGCLKNYCECYEAQIMCSSICKCIGCKRY [N35R]	-0.019 ± 0.077

Variant	abundance fitness
KGCNCRRSGCLKNYCECYEAQIMCSSICKCIGCKWY [N35W]	-0.233 ± 0.1
KGCNCRRSGCLKNYCECYEAQIMCSSICKCIGCKDY [N35D]	0.18 ± 0.12
KGCNCRRSGCLKNYCECYEAQIMCSSICKCIGCKCY [N35C]	-0.384 ± 0.3
KGCNCRRSGCLKNYCECYEAQIMCSSICKCIGCKEY [N35E]	0.11 ± 0.09
KGCNCRRSGCLKNYCECYEAQIMCSSICKCIGCKGY [N35G]	0.211 ± 0.074
KGCNCRRSGCLKNYCECYEAQIMCSSICKCIGCKTY [N35T]	-0.167 ± 0.11
KGCNCRRSGCLKNYCECYEAQIMCSSICKCIGCKQY [N35Q]	0.114 ± 0.11
KGCNCRRSGCLKNYCECYEAQIMCSSICKCIGCKPY [N35P]	-0.055 ± 0.094
KGCNCRRSGCLKNYCECYEAQIMCSSICKCIGCKKY [N35K]	-0.44 ± 0.16
KGCNCRRSGCLKNYCECYEAQIMCSSICKCIGCKNT [Y36T]	0.15 ± 0.18
KGCNCRRSGCLKNYCECYEAQIMCSSICKCIGCKNW [Y36W]	0.02 ± 0.11
KGCNCRRSGCLKNYCECYEAQIMCSSICKCIGCKNI [Y36I]	0.371 ± 0.13
KGCNCRRSGCLKNYCECYEAQIMCSSICKCIGCKNR [Y36R]	0.305 ± 0.086
KGCNCRRSGCLKNYCECYEAQIMCSSICKCIGCKNL [Y36L]	-0.05 ± 0.1
KGCNCRRSGCLKNYCECYEAQIMCSSICKCIGCKNN [Y36N]	0.02 ± 0.14
KGCNCRRSGCLKNYCECYEAQIMCSSICKCIGCKNV [Y36V]	0.286 ± 0.1
KGCNCRRSGCLKNYCECYEAQIMCSSICKCIGCKNA [Y36A]	0.209 ± 0.11
KGCNCRRSGCLKNYCECYEAQIMCSSICKCIGCKNK [Y36K]	-0.317 ± 0.26
KGCNCRRSGCLKNYCECYEAQIMCSSICKCIGCKNS [Y36S]	-0.016 ± 0.14
KGCNCRRSGCLKNYCECYEAQIMCSSICKCIGCKND [Y36D]	0.145 ± 0.13
KGCNCRRSGCLKNYCECYEAQIMCSSICKCIGCKNG [Y36G]	0.193 ± 0.1
KGCNCRRSGCLKNYCECYEAQIMCSSICKCIGCKNP [Y36P]	0.31 ± 0.095

Variants of: B2
Test: as above
Details: Homo sapiens

Variant	abundance fitness
KKRTSIEVSVKGVLETHFLKCPKPAAQEISSNADSLQLEKEVVRVWFCNRRQKEKR [L32N]	-0.785 ± 0.32
KKRTSIEVSVKGVLETHFLKCPKPAAQEISSLADSLQLEKEVVRVWFCNRRQCEKR [K53C]	-0.428 ± 0.35
